# In IntAct's records for PubMed 23954414:
# B1: Beclin-2 (Homo sapiens), A8MW95 (parent)
# chain: MSSIRFLCQRCHQALKLSGSSESRSLPAAPAPTSGQAEPGDTREPGVTTREVTDAEEQQDGASSRSPPGDGSVSKGHANIFTLLGELGAMHMLSSIQKAAGDIFDIVSGQAVVDHPLCEECTDSLLEQLDIQLALTEADSQNYQRCLETGELATSEDEAAALRAELRDLELEEARLVQELEDVDRNNARAAADLQAAQAEAAELDQQERQHYRDYSALKRQQLELLDQLGNVENQLQYARVQRDRLKEINCFTATFEIWVEGPLGVINNFRLGRLPTVRVGWNEINTAWGQAALLLLTLANTIGLQFQRYRLIPCGNHSYLKSLTDDRTELPLFCYGGQDVFLNNKYDRAMVAFLDCMQQFKEEAEKGELGLSLPYGIQVETGLMEDVGGRGECYSIRTHLNTQELWTKALKFMLINFKWSLIWVASRYQK
# partner: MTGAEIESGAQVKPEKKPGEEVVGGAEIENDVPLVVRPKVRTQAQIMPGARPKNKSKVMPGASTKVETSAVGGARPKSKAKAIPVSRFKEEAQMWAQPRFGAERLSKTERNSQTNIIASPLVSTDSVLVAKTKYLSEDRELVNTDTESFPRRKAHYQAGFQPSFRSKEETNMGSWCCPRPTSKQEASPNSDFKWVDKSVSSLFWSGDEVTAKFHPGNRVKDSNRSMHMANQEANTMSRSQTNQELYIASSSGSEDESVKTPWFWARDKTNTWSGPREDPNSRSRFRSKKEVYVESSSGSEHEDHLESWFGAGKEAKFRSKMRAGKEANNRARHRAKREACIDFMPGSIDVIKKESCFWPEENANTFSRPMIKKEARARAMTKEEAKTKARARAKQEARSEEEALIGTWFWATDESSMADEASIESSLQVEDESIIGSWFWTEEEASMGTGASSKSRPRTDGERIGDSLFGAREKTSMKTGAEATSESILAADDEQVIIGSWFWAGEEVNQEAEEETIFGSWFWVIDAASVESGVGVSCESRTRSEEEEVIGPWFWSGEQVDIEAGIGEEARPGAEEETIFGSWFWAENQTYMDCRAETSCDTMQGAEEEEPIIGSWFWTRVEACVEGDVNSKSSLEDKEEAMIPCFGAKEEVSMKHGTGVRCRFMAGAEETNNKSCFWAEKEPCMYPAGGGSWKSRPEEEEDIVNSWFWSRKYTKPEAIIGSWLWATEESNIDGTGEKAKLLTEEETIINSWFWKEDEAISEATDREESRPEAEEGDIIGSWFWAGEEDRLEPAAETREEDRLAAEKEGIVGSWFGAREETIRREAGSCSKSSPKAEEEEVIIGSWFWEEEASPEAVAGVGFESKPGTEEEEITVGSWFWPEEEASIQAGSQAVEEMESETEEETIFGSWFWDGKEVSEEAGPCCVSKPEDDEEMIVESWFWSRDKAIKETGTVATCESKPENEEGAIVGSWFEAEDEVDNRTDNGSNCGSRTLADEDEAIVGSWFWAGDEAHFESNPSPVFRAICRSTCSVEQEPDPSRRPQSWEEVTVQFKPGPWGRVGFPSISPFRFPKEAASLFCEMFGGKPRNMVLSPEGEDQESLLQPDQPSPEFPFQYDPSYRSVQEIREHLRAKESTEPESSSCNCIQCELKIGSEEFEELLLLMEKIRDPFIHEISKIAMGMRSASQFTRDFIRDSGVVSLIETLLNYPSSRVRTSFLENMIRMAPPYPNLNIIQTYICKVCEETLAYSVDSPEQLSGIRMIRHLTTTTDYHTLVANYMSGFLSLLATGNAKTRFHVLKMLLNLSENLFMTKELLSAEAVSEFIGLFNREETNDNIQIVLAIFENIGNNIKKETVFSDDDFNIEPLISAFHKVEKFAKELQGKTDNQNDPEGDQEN
# Variants of: B1
# Conditions: with gasp1_human GPRASP1, Q5JY77
row,Variant,effect of a mutation on the interaction
1,MSSIRFLCQRCHQALKLSGSSESRSLPAAPAPTSGQAEPGDTREPGVTTREVTDAEEQQDGASSRSPPGDGSVSKGHANSFTLLGELGAMHMLSSIQKAAGDIFDIVSGQAVVDHPLCEECTDSLLEQLDIQLALTEADSQNYQRCLETGELATSEDEAAALRAELRDLELEEARLVQELEDVDRNNARAAADLQAAQAEAAELDQQERQHYRDYSALKRQQLELLDQLGNVENQLQYARVQRDRLKEINCFTATFEIWVEGPLGVINNFRLGRLPTVRVGWNEINTAWGQAALLLLTLANTIGLQFQRYRLIPCGNHSYLKSLTDDRTELPLFCYGGQDVFLNNKYDRAMVAFLDCMQQFKEEAEKGELGLSLPYGIQVETGLMEDVGGRGECYSIRTHLNTQELWTKALKFMLINFKWSLIWVASRYQK [I80S],disrupting interaction strength
